Experimental data: FireProtDB (doi:10.1110/ps.062645007)
Where “and” joins values, the source holds several entries; their conditions need not be identical. Equal entries are not always repeated.

Settings: Salmonella typhimurium (strain LT2 / SGSC1412 / ATCC 700720); pH 7.4; Thermal; CD; Phosphate 10 mM; transition: 3; whole UniProt chain shown

B1: Cell invasion protein SipD wild type, Q56026 (protein)
chain: MLNIQNYSASPHPGIVAERPQTPSASEHVETAVVPSTTEHRGTDIISLSQAATKIHQAQQTLQSTPPISEENNDERTLARQQLTSSLNALAKSGVSLSAEQNENLRSAFSAPTSALFSASPMAQPRTTISDAEIWDMVSQNISAIGDSYLGVYENVVAVYTDFYQAFSDILSKMGGWLLPGKDGNTVKLDVTSLKNDLNSLVNKYNQINSNTVLFPAQSGSGVKVATEAEARQWLSELNLPNSCLKSYGSGYVVTVDLTPLQKMVQDIDGLGAPGKDSKLEMDNAKYQAWQSGFKAQEENMKTTLQTLTQKYSNANSLYDNLVKVLSSTISSSLETAKSFLQG
Tm: 75.7 °C and 76.6 °C
